According to US20220252601A1 (JW BIOSCIENCE, published 2022):
Substitutions are numbered along the chain they refer to.

T1: AIMP1 (aminoacyl tRNA synthase complex-interacting multifunctional protein 1) (UniProt Q12904 1-312, limits assumed)
T1 construct: also called p43
T1 sequence (looked up): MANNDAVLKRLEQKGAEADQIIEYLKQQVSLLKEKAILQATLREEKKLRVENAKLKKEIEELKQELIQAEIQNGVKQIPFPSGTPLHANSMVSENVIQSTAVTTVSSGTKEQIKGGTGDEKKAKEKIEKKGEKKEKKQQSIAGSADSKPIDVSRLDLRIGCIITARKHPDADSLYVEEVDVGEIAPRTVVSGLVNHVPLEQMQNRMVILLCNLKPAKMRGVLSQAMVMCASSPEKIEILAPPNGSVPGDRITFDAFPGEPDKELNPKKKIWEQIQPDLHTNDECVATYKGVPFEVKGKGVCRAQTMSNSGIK

T2: GRS (glycyl tRNA synthetase) (UniProt P41250 55-739, limits assumed)
T2 sequence (looked up): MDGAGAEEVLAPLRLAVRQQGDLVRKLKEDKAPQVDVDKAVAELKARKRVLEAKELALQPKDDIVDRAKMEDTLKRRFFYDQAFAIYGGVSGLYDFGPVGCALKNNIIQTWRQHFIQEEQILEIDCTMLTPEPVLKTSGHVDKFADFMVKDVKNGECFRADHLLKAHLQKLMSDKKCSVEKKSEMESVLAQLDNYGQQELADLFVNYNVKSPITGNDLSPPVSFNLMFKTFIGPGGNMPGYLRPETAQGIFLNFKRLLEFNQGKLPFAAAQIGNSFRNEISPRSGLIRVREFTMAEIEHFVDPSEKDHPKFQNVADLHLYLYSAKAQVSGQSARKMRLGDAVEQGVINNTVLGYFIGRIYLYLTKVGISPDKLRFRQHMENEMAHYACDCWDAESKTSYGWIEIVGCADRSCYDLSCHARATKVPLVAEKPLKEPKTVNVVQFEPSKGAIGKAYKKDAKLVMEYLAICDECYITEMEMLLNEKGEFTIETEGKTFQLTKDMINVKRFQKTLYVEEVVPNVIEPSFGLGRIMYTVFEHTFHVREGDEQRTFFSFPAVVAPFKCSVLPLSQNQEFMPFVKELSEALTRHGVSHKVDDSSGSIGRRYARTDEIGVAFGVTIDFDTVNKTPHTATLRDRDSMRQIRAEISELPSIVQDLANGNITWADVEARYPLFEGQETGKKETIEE

T3: CRS (cysteinyl-tRNA synthetase) (UniProt P49589 1-748, limits assumed)
T3 sequence (looked up): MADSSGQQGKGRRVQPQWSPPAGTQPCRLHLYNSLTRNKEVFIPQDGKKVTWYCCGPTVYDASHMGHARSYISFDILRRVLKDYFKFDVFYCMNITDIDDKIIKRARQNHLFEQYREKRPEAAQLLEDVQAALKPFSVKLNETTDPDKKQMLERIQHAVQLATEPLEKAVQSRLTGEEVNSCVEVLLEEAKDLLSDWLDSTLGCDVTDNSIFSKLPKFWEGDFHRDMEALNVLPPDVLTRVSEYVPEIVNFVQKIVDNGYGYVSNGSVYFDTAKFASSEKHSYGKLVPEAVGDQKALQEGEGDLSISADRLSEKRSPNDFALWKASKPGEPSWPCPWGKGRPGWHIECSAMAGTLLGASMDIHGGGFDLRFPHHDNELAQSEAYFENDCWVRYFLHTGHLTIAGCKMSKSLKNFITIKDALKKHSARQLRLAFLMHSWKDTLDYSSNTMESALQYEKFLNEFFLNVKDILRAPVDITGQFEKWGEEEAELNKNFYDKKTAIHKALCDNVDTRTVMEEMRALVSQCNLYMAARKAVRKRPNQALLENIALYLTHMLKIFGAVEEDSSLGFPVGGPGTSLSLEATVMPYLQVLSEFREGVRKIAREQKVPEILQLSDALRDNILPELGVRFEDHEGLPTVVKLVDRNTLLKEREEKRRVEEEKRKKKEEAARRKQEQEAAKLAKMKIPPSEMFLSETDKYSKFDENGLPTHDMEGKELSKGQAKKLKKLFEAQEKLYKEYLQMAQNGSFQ

B1: 1D4C3 (antibody, V domains shown)
VH: QAYLQQSGAELVRPGASVKMSCKASGYTFTSYNMHWVKQTPRQGLEWIGAIYPGNGDSSYNQKFKGKATLTVGKSSSTAYMQLSSLTSEDSAVYFCARWHYGSTYYAMDYWGQGTSVTVSS
VL: DIQMTQTTSSLSASLGDRVTISCRASQDISNYLNWFQQKPDGTVKLLIYYTSRLHSGVPSRFSGSGSGTDYSLTISNLEQEDFATYFCQQGKTLPHTFGGGTKLEIK
modifications: Antibody was biotin-attached in the ELISA of Example 5; site not stated.
notes: detected with anti-mouse HRP; also called 1D4C4
B2: 3B10H5 (antibody, V domains shown)
VH: B1 VH with M34L, E46K, S58T, G73D, T104S
VL: B1 VL with F36Y, Y49S, F83I, K92Y
modifications: Antibody was biotin-attached in the ELISA of Example 5; site not stated.
notes: detected with anti-mouse HRP
B3: 3B6 (antibody, V domains shown)
VH: EVQLLESGGGLVQPGGSLRLSCAASGFTFSSYSMSWVRQAPGKGLEWVSAISYDNGNTYYADSVKGRFTISRDNSKNTLYLQMNSLRAEDTAVYYCAKGATTQPHTSFDYWGQGTLVTVNS
VL: QSVLTQPPSASGTPGQRVTISCSGSSSNIGNNNVSWYQQLPGTAPKLLIYYNSHRPSGVPDRFSGSKSGTSASLAISGLRSEDEADYYCGTWDASLSAYVFGGGTKLTVL
modifications: Antibody was biotin-attached in the ELISA of Example 5; site not stated.
B4: 4G4 (antibody, V domains shown)
VH: EVQLLESGGGLVQPGGSLRLSCAASGLTFSNYAMSWVRQAPGKGLEWVSWISPGDGNKYYADSVRGRFTVSRDNSKNTLYLQMNSLRAEDTAVYYCARVTIPCRRTTCYSANGMDVWGQGTLVTVSS
VL: B3 VL with N31S, N33S, S35T, Y51H, N52D, R55P, G90A, T91A, A94D, A98G
modifications: Antibody was biotin-attached in the ELISA of Example 5; site not stated.
B5: 4H9 (antibody, V domains shown)
VH: EVQLLESGGGLVQPGGPLRLSCAASGFTFSNYAMSWVRQAPGKGLEWVSSIYPDGGGIYYADSVKGRFTISRDNSKNTLYLQMNSLRAEDTAVYYCARDLYPFGPDTFDYWGQGTLVTVSS
VL: B3 VL with N31S, N33D, S35T, Y51D, H54K, T91A, A94D, A98G
modifications: Antibody was biotin-attached in the ELISA of Example 5; site not stated.

Molecular target: T1, AIMP1 (aminoacyl tRNA synthase …)
Assay: indirect ELISA, antigen coated at 1 µg/ml

binding result	Binder
no binding (tested: 500 ng/ml)	B1
no binding (tested: 500 ng/ml)	B2
no binding (tested: 500 ng/ml)	B3
no binding (tested: 500 ng/ml)	B4
no binding (tested: 500 ng/ml)	B5

Molecular target: T2, GRS (glycyl tRNA synthetase)
Assay: indirect ELISA, antigen coated at 1 µg/ml

binding result	Binder
no binding (tested: 500 ng/ml)	B1
no binding (tested: 500 ng/ml)	B2
no binding (tested: 500 ng/ml)	B3
no binding (tested: 500 ng/ml)	B4
no binding (tested: 500 ng/ml)	B5

Molecular target: KRS (lysyl tRNA synthetase) (UniProt Q15046 1-597, limits assumed)
Assay: indirect ELISA, antigen coated at 1 µg/ml

Sequence of KRS (lysyl tRNA synthetase) (Q15046 whole entry): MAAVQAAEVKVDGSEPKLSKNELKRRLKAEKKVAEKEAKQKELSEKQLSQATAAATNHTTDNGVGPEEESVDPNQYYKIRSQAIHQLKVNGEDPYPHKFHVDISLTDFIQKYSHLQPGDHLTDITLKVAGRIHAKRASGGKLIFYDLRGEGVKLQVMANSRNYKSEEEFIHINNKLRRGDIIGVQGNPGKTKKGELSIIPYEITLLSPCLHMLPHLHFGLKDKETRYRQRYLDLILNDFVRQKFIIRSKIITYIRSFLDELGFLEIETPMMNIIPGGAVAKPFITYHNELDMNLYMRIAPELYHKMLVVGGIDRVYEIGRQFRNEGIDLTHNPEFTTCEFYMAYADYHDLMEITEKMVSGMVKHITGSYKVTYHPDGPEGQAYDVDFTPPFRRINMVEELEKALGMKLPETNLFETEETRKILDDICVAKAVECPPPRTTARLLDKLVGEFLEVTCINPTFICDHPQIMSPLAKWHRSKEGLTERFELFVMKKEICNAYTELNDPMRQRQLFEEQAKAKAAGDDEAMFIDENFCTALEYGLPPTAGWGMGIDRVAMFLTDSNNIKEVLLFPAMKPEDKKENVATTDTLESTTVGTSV

binding result	Binder
no binding (tested: 500 ng/ml)	B1
no binding (tested: 500 ng/ml)	B2
no binding (tested: 500 ng/ml)	B3
no binding (tested: 500 ng/ml)	B4
no binding (tested: 500 ng/ml)	B5

Molecular target: T3, CRS (cysteinyl-tRNA synthetase)
Assay: indirect ELISA, antigen coated at 1 µg/ml

binding result	Binder
no binding (tested: 500 ng/ml)	B1
no binding (tested: 500 ng/ml)	B2
no binding (tested: 500 ng/ml)	B3
no binding (tested: 500 ng/ml)	B4
no binding (tested: 500 ng/ml)	B5
